Data as given in the supplement of paper PMC6757056.
± gives the standard deviation of the averaged measurements.

B1: library; a variant is named by its letters at N, in order (parent)
chain: GCUGUCACCGGUGCUUGGUACGUUAUAUUCAGCCGGUCUGAUGAGUCUNNNNNNAGACGAAACAGC

Legend:
(6R,S)-folinic acid [1] = variants of: B1; assay: normalized RNA/DNA level without ligand (relative to sTRSVctl = 100) (log10 (% of sTRSVctl)); HEK293T overexpressing SLC46A1; higher = less ribozyme self-cleavage, higher mRNA level; details: without (6R,S)-folinic acid; ligand present: no
How it was run: (§1)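 Library plasmids encoding reporter-linked ribozyme switches (mCherry, or eGFP for some folinic acid experiments) were transfected into HEK293T at 4 µg per 6-well well. Ligand, when used, was added 1 h before transfection. Total RNA was extracted with EDTA 72 h later, then reverse-transcribed, amplified, barcoded and sequenced. RNA level was RNA reads over DNA reads, divided by a spiked-in non-cleaving control (or the top 25 sequences), ×100, log10; only sequences with ≥100 DNA reads were kept.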

(6R,S)-folinic acid [2] = variants of: B1; assay: normalized RNA/DNA level with ligand (relative to sTRSVctl = 100) (log10 (% of sTRSVctl)); HEK293T overexpressing SLC46A1; ligand concentration (+) RNA-Seq: 6 mM; higher = less ribozyme self-cleavage, higher mRNA level; details: with (6R,S)-folinic acid; ligand present: yes
How it was run: as §1

| Variant | normalized RNA/DNA level without ligand (log10) ((6R,S)-folinic acid [1]) | normalized RNA/DNA level with ligand (log10) ((6R,S)-folinic acid [2]) |
| --- | --- | --- |
| CGCCGU | 2.038 ± 0.0097 | 2.05 ± 0.065 |
| CGCCGA | 2.027 ± 0.0027 | 2.08 ± 0.044 |
| CGCCGC | 2.062 ± 0.0024 | 2.03 ± 0.047 |
| GGCCUU | 2.108 ± 0.0078 | 2.09 ± 0.042 |
| GGCCUC | 2.044 ± 0.018 | 2.06 ± 0.025 |
| GGCCUG | 2.064 ± 0.015 | 2.03 ± 0.085 |
| GGCCUA | 2.04 ± 0.021 | 2.01 ± 0.045 |
| GGCGCC | 2.093 ± 0.017 | 2.07 ± 0.023 |
| GGCGCG | 2.085 ± 0.011 | 2.06 ± 0.05 |
| GGCGCA | 2.06 ± 0.0043 | 2.051 ± 0.019 |
| GGCGCU | 2.113 ± 0.014 | 2.1 ± 0.057 |
| UGCGUU | 1.972 ± 0.018 | 2 ± 0.051 |
| UGCGUC | 2.09 ± 0.0072 | 2.04 ± 0.044 |
| UGCGUA | 1.904 ± 0.015 | 1.98 ± 0.035 |
| CGCGGC | 2.11 ± 0.023 | 2.13 ± 0.047 |
| CGCGGA | 2.052 ± 0.0026 | 2.05 ± 0.03 |
| CGCGGU | 2.003 ± 0.019 | 2.035 ± 0.015 |
| CGCGGG | 1.938 ± 0.017 | 2.039 ± 0.01 |
| GGCUAU | 2.051 ± 0.0061 | 2.01 ± 0.027 |
| GGCUAC | 2.02 ± 0.042 | 2.05 ± 0.021 |
| GGCUAG | 2.063 ± 0.0075 | 2.042 ± 0.004 |
| GGCUAA | 2.036 ± 0.011 | 2.05 ± 0.033 |
| UGCCAG | 1.812 ± 0.0093 | 1.9581 ± 0.00078 |
| UGCCAU | 1.982 ± 0.0048 | 2 ± 0.021 |

| Variant | normalized RNA/DNA level without ligand (log10) ((6R,S)-folinic acid [1]) | normalized RNA/DNA level with ligand (log10) ((6R,S)-folinic acid [2]) |
| --- | --- | --- |
| UGCCCG | 1.95 ± 0.022 | 2.01 ± 0.07 |
| UGCCCA | 2.007 ± 0.0092 | 1.99 ± 0.018 |
| UGCCCC | 2.03 ± 0.04 | 2.01 ± 0.07 |
| UGCCCU | 2.061 ± 0.0087 | 2.06 ± 0.043 |
| CGCCAC | 2 ± 0.028 | 1.99 ± 0.042 |
| CGCCAA | 1.973 ± 0.014 | 2.02 ± 0.048 |
| CGCCAU | 1.986 ± 0.0097 | 1.98 ± 0.034 |
| GGCGAA | 2.051 ± 0.0044 | 2.04 ± 0.021 |
| GGCGAG | 2.05 ± 0.017 | 2.018 ± 0.018 |
| UGCGCA | 1.951 ± 0.002 | 1.98 ± 0.033 |
| UGCGCC | 2.07 ± 0.015 | 2.043 ± 0.0087 |
| UGCGCG | 1.81 ± 0.046 | 1.99 ± 0.056 |
| CGCGUU | 2.094 ± 0.014 | 2.07 ± 0.03 |
| CGCGUG | 1.963 ± 0.0059 | 2 ± 0.027 |
| CGCGUC | 2.071 ± 0.0094 | 2.06 ± 0.036 |
| CGCGUA | 1.993 ± 0.017 | 2.006 ± 0.0037 |
| AGAGGU | 1.889 ± 0.0033 | 2 ± 0.076 |
| GGCAGC | 2.001 ± 0.008 | 1.98 ± 0.032 |
| GGCAGA | 2.077 ± 0.0039 | 2.033 ± 0.004 |
| GGCAGG | 2.064 ± 0.015 | 2.045 ± 0.0058 |
| GGCAGU | 2.058 ± 0.0031 | 2.013 ± 0.0043 |
| UGCUAU | 1.994 ± 0.0055 | 2.05 ± 0.03 |
| UGCUAC | 2.021 ± 0.0079 | 2.02 ± 0.071 |
| GGCAAA | 2.069 ± 0.0036 | 2.04 ± 0.044 |

| Variant | normalized RNA/DNA level without ligand (log10) ((6R,S)-folinic acid [1]) | normalized RNA/DNA level with ligand (log10) ((6R,S)-folinic acid [2]) |
| --- | --- | --- |
| GGCAAU | 2.057 ± 0.01 | 2.04 ± 0.03 |
| GGCAAG | 2.034 ± 0.007 | 2.003 ± 0.017 |
| GGCAAC | 2.057 ± 0.0039 | 2.04 ± 0.0099 |
| GGAUGC | 1.912 ± 0.002 | 1.962 ± 0.015 |
| GGAUGU | 1.972 ± 0.0047 | 2.03 ± 0.052 |
| GGAUGG | 1.948 ± 0.012 | 2.02 ± 0.033 |
| GGAUGA | 2.024 ± 0.02 | 2.058 ± 0.0075 |
| UGAUUC | 2.058 ± 0.0048 | 2.04 ± 0.04 |
| UGAUUU | 1.9907 ± 0.00083 | 2.02 ± 0.023 |
| GGAUUA | 2.014 ± 0.0063 | 2.0315 ± 0.0011 |
| GGAUUG | 1.996 ± 0.0084 | 2.05 ± 0.053 |
| CGCCUG | 2.057 ± 0.011 | 2.056 ± 0.002 |
| CGCCUC | 2.039 ± 0.0057 | 1.992 ± 0.015 |
| CGCCUA | 2.05 ± 0.0096 | 2.05 ± 0.061 |
| CGCCUU | 2.0227 ± 0.00028 | 2.007 ± 0.018 |
| UGCAUC | 2.07 ± 0.032 | 2.035 ± 0.015 |
| UGCAUA | 1.948 ± 0.015 | 1.99 ± 0.068 |
| AGCAGC | 2.028 ± 0.0032 | 2.03 ± 0.054 |
| AGCAGG | 1.944 ± 0.0028 | 2.01 ± 0.042 |
| AGCAGU | 1.991 ± 0.0037 | 2.01 ± 0.028 |
| AGCGAC | 1.99 ± 0.011 | 2.0338 ± 0.00013 |
| AGCGAG | 1.886 ± 0.014 | 1.998 ± 0.012 |
| AGCGAA | 1.96 ± 0.014 | 2.01 ± 0.03 |
| AGCGAU | 1.982 ± 0.0033 | 2 ± 0.028 |

| Variant | normalized RNA/DNA level without ligand (log10) ((6R,S)-folinic acid [1]) | normalized RNA/DNA level with ligand (log10) ((6R,S)-folinic acid [2]) |
| --- | --- | --- |
| AGCGCU | 2.027 ± 0.0049 | 2.01 ± 0.026 |
| AGCGCC | 2.058 ± 0.017 | 2.03 ± 0.037 |
| AGCGCG | 1.972 ± 0.019 | 2 ± 0.037 |
| CGAUCU | 2.062 ± 0.0057 | 2.06 ± 0.03 |
| CGAUCG | 2.042 ± 0.013 | 2.05 ± 0.034 |
| CGAUCC | 2.05 ± 0.023 | 2.06 ± 0.036 |
| CGAUCA | 2.008 ± 0.0093 | 2.04 ± 0.05 |
| CGCAUG | 2.01 ± 0.019 | 2.01 ± 0.022 |
| CGCAUC | 2.08 ± 0.021 | 1.97 ± 0.036 |
| AGAUAG | 1.9299 ± 0.00079 | 2.01 ± 0.041 |
| AGAUAC | 1.983 ± 0.0026 | 2.022 ± 0.02 |
| AGAUAU | 1.97 ± 0.011 | 2.04 ± 0.038 |
| AGAGUU | 2.002 ± 0.0079 | 2.011 ± 0.0021 |
| AGAGUG | 1.71 ± 0.035 | 1.98 ± 0.039 |
| AGAGUA | 1.94 ± 0.0059 | 2.01 ± 0.033 |
| AGAGUC | 2.059 ± 0.0045 | 2.02 ± 0.034 |
| GGAUAC | 1.988 ± 0.011 | 2.034 ± 0.013 |
| GGAUAG | 1.95 ± 0.0034 | 2.03 ± 0.038 |
| GGAUAU | 2.0169 ± 0.0015 | 2.02 ± 0.023 |
| CGAUAU | 1.949 ± 0.0095 | 2.01 ± 0.028 |
| CGAUAG | 1.959 ± 0.0024 | 1.977 ± 0.01 |
| CGAUAA | 1.946 ± 0.015 | 1.98 ± 0.04 |
| CGAUAC | 1.995 ± 0.013 | 2.015 ± 0.0083 |
| GGCAUU | 2.08 ± 0.025 | 2.04 ± 0.039 |

| Variant | normalized RNA/DNA level without ligand (log10) ((6R,S)-folinic acid [1]) | normalized RNA/DNA level with ligand (log10) ((6R,S)-folinic acid [2]) |
| --- | --- | --- |
| GGCAUC | 2.055 ± 0.014 | 2.03 ± 0.033 |
| GGCAUG | 2.064 ± 0.0071 | 2.03 ± 0.033 |
| GGAUCU | 2.037 ± 0.0059 | 2.03 ± 0.045 |
| GGAUCC | 2.0688 ± 0.00086 | 2.06 ± 0.037 |
| GGAUCA | 2.02 ± 0.021 | 2.03 ± 0.05 |
| GGAUCG | 2.0373 ± 0.00033 | 2.08 ± 0.045 |
| AGAUCC | 2.058 ± 0.0091 | 2.033 ± 0.02 |
| AGAUCG | 1.992 ± 0.0077 | 2.013 ± 0.019 |
| AGAUCU | 2.0242 ± 0.00035 | 2.05 ± 0.032 |
| AGAUGU | 1.971 ± 0.0095 | 2.02 ± 0.036 |
| AGAUGC | 2.017 ± 0.0026 | 2.03 ± 0.021 |
| UGAUCC | 2.059 ± 0.012 | 2.03 ± 0.049 |
| UGAUCA | 1.99 ± 0.021 | 2 ± 0.038 |
| UGAUCU | 1.995 ± 0.012 | 2.04 ± 0.091 |
| AGCACA | 2.0177 ± 0.00097 | 2 ± 0.04 |
| AGCACG | 1.99 ± 0.033 | 2.025 ± 0.01 |
| AGCACC | 2.08 ± 0.031 | 2 ± 0.03 |
| AGCCGG | 2.068 ± 0.019 | 2.01 ± 0.045 |
| AGCCGA | 2.004 ± 0.0033 | 2.02 ± 0.025 |
| AGCCGC | 2.037 ± 0.0083 | 2.02 ± 0.044 |
